Starred links: 1 amine or outer side, 2 acyl side, 3 side chain; linkers in the order of their positions; H or OH if unused. Positions of bridges follow the written chain, without caps; N, C: chain ends. Non-standard residues stand in square brackets, D forms with d. No end group written: not given here. Yde = (2S)-2-amino-3-[4-[2-(dimethylamino)ethoxy]phenyl]propanoic acid, CN(C)CCOc1ccc(C[C@H](N[*:1])C(=O)[*:2])cc1; Trp(7-Me) = Cc1cccc2c(C[C@H](N)C(=O)O)c[nH]c12; αMeLys(Me2) = CN(C)CCCC[C@](C)(N)C(=O)O; 2Nal = N[C@@H](Cc1ccc2ccccc2c1)C(=O)O; εLys = N[C@@H](CCCCN[*:1])C(=O)[*:2]; 3Pal = N[C@@H](Cc1cccnc1)C(=O)O; Dad = desamino-aspartamic acid; Lys(Me) = CNCCCC[C@H](N)C(=O)O; αMeL = CC(C)C[C@](C)(N)C(=O)O; Aib = CC(C)(N)C(=O)O; Ava = NCCCCC(=O)O; Sar = CNCC(=O)O
T1: IL-23 receptor on the surface of HEK-Blue IL-23 cells (UniProt Q5VWK5 24-629, limits assumed)
T1 sequence (looked up): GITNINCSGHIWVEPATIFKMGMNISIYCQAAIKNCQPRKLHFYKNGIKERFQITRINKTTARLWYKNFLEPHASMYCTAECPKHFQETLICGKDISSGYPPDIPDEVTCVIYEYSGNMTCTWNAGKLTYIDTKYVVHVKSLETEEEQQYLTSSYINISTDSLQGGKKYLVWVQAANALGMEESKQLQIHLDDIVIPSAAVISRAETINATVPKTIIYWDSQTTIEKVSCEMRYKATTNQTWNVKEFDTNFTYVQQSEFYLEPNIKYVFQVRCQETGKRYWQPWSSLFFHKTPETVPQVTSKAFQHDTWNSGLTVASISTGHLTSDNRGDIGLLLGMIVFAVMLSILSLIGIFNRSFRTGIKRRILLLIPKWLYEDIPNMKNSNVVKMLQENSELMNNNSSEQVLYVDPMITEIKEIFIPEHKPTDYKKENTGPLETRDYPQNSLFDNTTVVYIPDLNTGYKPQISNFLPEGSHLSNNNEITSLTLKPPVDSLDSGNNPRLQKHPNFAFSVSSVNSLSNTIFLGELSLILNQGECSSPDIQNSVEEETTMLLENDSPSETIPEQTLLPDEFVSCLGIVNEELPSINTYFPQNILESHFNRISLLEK

B1: Compound of SEQ ID NO: 149 (peptide)
peptide: [Ava]CK[Trp(7-Me)]K(Ac)C[Yde][2Nal][αMeLys(Me2)]EN[3Pal][Sar]-NH2
modifications: lactam N-10; disulfide 2-6; not fully specified (residue 3); printed as Apt(§1)-C(§3)(@2)-K[aAc](@3)-Wim-K[Ac]-C(@2)-Yde-Nal-MKdm-E(§1)-N-Pal-Sar-NH2; also: K3 acetylated (K[aAc]), acetyl site not given here, ε-NH2 takes the Cys2 bond
B2: Compound of SEQ ID NO: 150 (peptide)
peptide: [Dad]CNT[Trp(7-Me)]LC[Yde][2Nal][αMeLys(Me2)]KN[3Pal]-NH2
modifications: lactam (positions not given here); disulfide 2-7; not fully specified (bridges); printed as Dad(§1)-C(@2)-N-T-Wim-L-C(@2)-Yde-Nal-MKdm-K(§1)-N-Pal-NH2
B3: Compound of SEQ ID NO: 154 (peptide)
peptide: [Dad]CNT[Trp(7-Me)]LC[Yde][2Nal][αMeLys(Me2)]KN[3Pal][Sar]-NH2
modifications: lactam (positions not given here); disulfide 2-7; not fully specified (bridges); printed as Dad(§1)-C(@2)-N-T-Wim-L-C(@2)-Yde-Nal-MKdm-K(§1)-N-Pal-Sar-NH2
B4: Compound of SEQ ID NO: 155 (peptide)
peptide: [Dad]CNT[Trp(7-Me)]LC[Yde][2Nal][αMeLys(Me2)]KA[3Pal][Sar]-NH2
modifications: lactam (positions not given here); disulfide 2-7; not fully specified (bridges); printed as Dad(§1)-C(@2)-N-T-Wim-L-C(@2)-Yde-Nal-MKdm-K(§1)-A-Pal-Sar-NH2
B5: Compound of SEQ ID NO: 157 (peptide)
peptide: [Dad]CNT[Trp(7-Me)]K(Ac)C[Yde][2Nal][Aib]KN[3Pal][Sar]-NH2
modifications: lactam (positions not given here); disulfide 2-7; not fully specified (bridges); printed as Dad(§1)-C(@2)-N-T-Wim-K[Ac]-C(@2)-Yde-Nal-Aib-K(§1)-N-Pal-Sar-NH2
B6: Compound of SEQ ID NO: 151 (peptide)
peptide: [Dad]CNT[Trp(7-Me)]K(Ac)C[Yde][2Nal][αMeLys(Me2)]KN[3Pal][Sar]-NH2
modifications: lactam (positions not given here); disulfide 2-7; not fully specified (bridges); printed as Dad(§1)-C(@2)-N-T-Wim-K[Ac]-C(@2)-Yde-Nal-MKdm-K(§1)-N-Pal-Sar-NH2
B7: Compound of SEQ ID NO: 156 (peptide)
peptide: [Dad]CNT[Trp(7-Me)]K(Ac)C[Yde][2Nal][αMeLys(Me2)][Lys(Me)]N[3Pal][Sar]-NH2
modifications: lactam (positions not given here); disulfide 2-7; not fully specified (bridges); printed as Dad(§1)-C(@2)-N-T-Wim-K[Ac]-C(@2)-Yde-Nal-MKdm-Kme(§1)-N-Pal-Sar-NH2
B8: Compound of SEQ ID NO: 158 (peptide)
peptide: [Dad]C[εLys][Trp(7-Me)]LC[Yde][2Nal][αMeL]KN[3Pal][Sar]-NH2
modifications: disulfide 2-6; lactam 1-10; also: K3 acetylated (K[aAc]), acetyl site not given here, ε-NH2 takes the Cys2 bond

molecular target: T1, IL-23 receptor on the surface of …; test: cell-based or functional assay

pSTAT3 (nM) | Binder
0.04 | B1
0.13 | B2
65 | XCNTWQCXXXDNG (not fully specified; Ahx(§1)-C(@2)-N-T-W-Q-C(@2)-Yae-Nal-Aib-D(§1)-N-G-NH2) [Compound of SEQ ID NO: 9]
0.08 | B3
0.1 | B4
0.06 | B5
0.06 | B6
0.08 | B7
0.39 | B8

— US20260258084A1, “New Peptides as Selective IL-23 Receptor Antagonists” (Sanofi, priority 2022, published 2026)
